Variants at the floor of the assay were thinned out.
What was measured:
biotinyl-Phe-oxazolone = assay: self-aminoacylation, catalytic enhancement (BFO) (fold over background); higher = more active; k-Seq, kA / k0A0; sequences stand for … in GGGAAUGGAUCCACAUCUACGAAUUC…UUCACUGCAGACUUGACGAAGCUG
In short: (§1)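 Catalytic enhancement equals the median kA over the uncatalyzed rate, the latter read from the low-activity peak of a bimodal Gaussian fit. Values of kA came from fitting each sequence's fraction reacted to a pseudo-first-order model, with 1000 bootstraps. Reacted RNA was captured with streptavidin and quantified by triplicate qPCR and Illumina sequencing after 90 minutes at room temperature with 2–1250 μM biotinyl-aminoacyl-oxazolone and 0.43 μM mutagenized RNA pools bearing a 21-nt variable region.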

biotinyl-Ile-oxazolone = assay: self-aminoacylation, catalytic enhancement (BIO) (fold over background); higher = more active; k-Seq, kA / k0A0; sequences stand for … in GGGAAUGGAUCCACAUCUACGAAUUC…UUCACUGCAGACUUGACGAAGCUG
In short: as §1

biotinyl-Met-oxazolone = assay: self-aminoacylation, catalytic enhancement (BMO) (fold over background); higher = more active; k-Seq, kA / k0A0; sequences stand for … in GGGAAUGGAUCCACAUCUACGAAUUC…UUCACUGCAGACUUGACGAAGCUG
In short: as §1

biotinyl-Val-oxazolone = assay: self-aminoacylation, catalytic enhancement (BVO) (fold over background); higher = more active; k-Seq, kA / k0A0; sequences stand for … in GGGAAUGGAUCCACAUCUACGAAUUC…UUCACUGCAGACUUGACGAAGCUG
In short: as §1

biotinyl-Leu-oxazolone = assay: self-aminoacylation, catalytic enhancement (BLO) (fold over background); higher = more active; k-Seq, kA / k0A0; sequences stand for … in GGGAAUGGAUCCACAUCUACGAAUUC…UUCACUGCAGACUUGACGAAGCUG
In short: as §1

biotinyl-Trp-oxazolone = assay: self-aminoacylation, catalytic enhancement (BWO) (fold over background); higher = more active; k-Seq, kA / k0A0; sequences stand for … in GGGAAUGGAUCCACAUCUACGAAUUC…UUCACUGCAGACUUGACGAAGCUG
In short: as §1

Sequence	self-aminoacylation (biotinyl-Phe-oxazolone)	self-aminoacylation (biotinyl-Ile-oxazolone)	self-aminoacylation (biotinyl-Met-oxazolone)	self-aminoacylation (biotinyl-Val-oxazolone)	self-aminoacylation (biotinyl-Leu-oxazolone)	self-aminoacylation (biotinyl-Trp-oxazolone)
CUACUUGAAAGAAUCGGUCUG [Fam1A.1 aminoacylation ribozyme variant]	0.599	0.869	0.974	0.771	0.693	0.731
CUACUUGAGACAAUCGGUCUG [Fam1A.1 aminoacylation ribozyme variant]	0.89	0.884	0.94	1.01	0.962	1.1
CUACUUGUAACAAUCGGUCUG [Fam1A.1 aminoacylation ribozyme variant]	0.824	0.651	0.806	0.658	0.678	0.573
CUACUUUAAACAAUCGGGCUG [Fam1A.1 aminoacylation ribozyme variant]	0.648	1.2	1.25	1.06	1.07	0.746
CUACUUUAAACAAUCGGUCGG [Fam1A.1 aminoacylation ribozyme variant]	0.521	0.945	1.08	0.911	0.963	0.769
CUACUUUAAACAAUCGGUGUG [Fam1A.1 aminoacylation ribozyme variant]	0.998	0.722	0.925	0.737	0.855	0.673
CUACUUUAAACAAUCGGUUUG [Fam1A.1 aminoacylation ribozyme variant]	0.922	0.824	0.786	0.8	0.776	0.724
CUACUUUAAACGAUCGGUCUG [Fam1A.1 aminoacylation ribozyme variant]	0.589	0.808	0.885	0.844	0.863	0.759
CUACUUUAACCAAUCGGUCUG [Fam1A.1 aminoacylation ribozyme variant]	1.22	0.883	0.779	0.842	0.662	0.949
CUACUUUAAGCAAUCGGUCUG [Fam1A.1 aminoacylation ribozyme variant]	0.5	0.721	0.749	0.685	0.69	0.51
CUACUUUAAUCAAUCGGUCUG [Fam1A.1 aminoacylation ribozyme variant]	1.43	0.955	0.892	0.915	0.78	0.755
CUAGUUCAAAAAAUCGGUCUG [Fam1A.1 aminoacylation ribozyme variant]	2.72	0.934	0.842	0.752	0.838	2.08
CUAGUUCUAACAAUCGGUCUG [Fam1A.1 aminoacylation ribozyme variant]	0.672	0.831	0.762	0.762	0.849	0.588
CUAUUUCAAACAAUCGGUCUC [Fam1A.1 aminoacylation ribozyme variant]	7.11	0.818	0.775	0.835	0.785	3.67
CUAUUUCAAACAUUCGGUCUG [Fam1A.1 aminoacylation ribozyme variant]	0.835	1.18	1.3	1.3	1.16	1.16
CUCCACCUAGGUCAUCGGGUG [Fam2.2 aminoacylation ribozyme variant]	36.3	3.95	5.98	5.19	5.74	7.04
CUCCUUCAAACAAUCGCUCUG [Fam1A.1 aminoacylation ribozyme variant]	2.77	0.73	0.531	0.666	0.78	2.01
CUCCUUCAAACAAUGGGUCUG [Fam1A.1 aminoacylation ribozyme variant]	0.816	0.855	0.901	0.982	1.05	0.877
CUCCUUCAAACCAUCGGUCUG [Fam1A.1 aminoacylation ribozyme variant]	1.69	0.815	0.805	0.977	0.781	0.905
CUCCUUCAACCAAUCGGUCUG [Fam1A.1 aminoacylation ribozyme variant]	29.5	1.11	1.1	1.16	1.33	19.8
CUCCUUCAAGCAAUCGGUCUG [Fam1A.1 aminoacylation ribozyme variant]	14.1	1.09	1.2	1.09	1.58	10.2
